Test results taken from article PMC3252339, “Human PAPS Synthase Isoforms Are Dynamically Regulated Enzymes with Access to Nucleus and Cytoplasm” (PLoS ONE, 2012).

Molecular target: the molecule itself
Assay: SEC; analytical gel filtration on Superdex 200 10/300 GL in 20 mM Tris (pH 7.3), 180 mM NaCl, 0.1 mM EDTA, 1 mM DTT; loaded at 2-10 µM, at most three-fold diluted during the run; dimer to monomers

Row | Protein | stoichiometry N | Kd [µM]
1 | PAPS synthase 1 wild type (enzyme, human, UniProt O43252 1-624, looked up, also called PAPSS1; PAPSS1 wild type; source: E. coli expression strains, purified (GSH sepharose, PreScission digestion, Superdex 200)) MEIPGSLCKKVKLSNNAQNWGMQRATNVTYQAHHVSRNKRGQVVGTRGGFRGCTVWLTGLSGAGKTTVSMALEEYLVCHGIPCYTLDGDNIRQGLNKNLGFSPEDREENVRRIAEVAKLFADAGLVCITSFISPYTQDRNNARQIHEGASLPFFEVFVDAPLHVCEQRDVKGLYKKARAGEIKGFTGIDSEYEKPEAPELVLKTDSCDVNDCVQQVVELLQERDIVPVDASYEVKELYVPENKLHLAKTDAETLPALKINKVDMQWVQVLAEGWATPLNGFMREREYLQCLHFDCLLDGGVINLSVPIVLTATHEDKERLDGCTAFALMYEGRRVAILRNPEFFEHRKEERCARQWGTTCKNHPYIKMVMEQGDWLIGGDLQVLDRVYWNDGLDQYRLTPTELKQKFKDMNADAVFAFQLRNPVHNGHALLMQDTHKQLLERGYRRPVLLLHPLGGWTKDDDVPLMWRMKQHAAVLEEGVLNPETTVVAIFPSPMMYAGPTEVQWHCRARMVAGANFYIVGRDPAGMPHPETGKDLYEPSHGAKVLTMAPGLITLEIVPFRVAAYNKKKKRMDYYDSEHHEDFEFISGTRMRKLAREGQKPPEGFMAPKAWTVLTEYYKSLEKA | 2 | 
2 | PAPS synthase 1 L119K (enzyme, human, UniProt O43252 1-624, looked up, Same construct as m1 with the point mutation made by site-directed mutagenesis; the oligonucleotides are in Information S1; also called PAPSS1 L119K; source: E. coli expression strains, purified (GSH sepharose, PreScission digestion, Superdex 200)) MEIPGSLCKKVKLSNNAQNWGMQRATNVTYQAHHVSRNKRGQVVGTRGGFRGCTVWLTGLSGAGKTTVSMALEEYLVCHGIPCYTLDGDNIRQGLNKNLGFSPEDREENVRRIAEVAKKFADAGLVCITSFISPYTQDRNNARQIHEGASLPFFEVFVDAPLHVCEQRDVKGLYKKARAGEIKGFTGIDSEYEKPEAPELVLKTDSCDVNDCVQQVVELLQERDIVPVDASYEVKELYVPENKLHLAKTDAETLPALKINKVDMQWVQVLAEGWATPLNGFMREREYLQCLHFDCLLDGGVINLSVPIVLTATHEDKERLDGCTAFALMYEGRRVAILRNPEFFEHRKEERCARQWGTTCKNHPYIKMVMEQGDWLIGGDLQVLDRVYWNDGLDQYRLTPTELKQKFKDMNADAVFAFQLRNPVHNGHALLMQDTHKQLLERGYRRPVLLLHPLGGWTKDDDVPLMWRMKQHAAVLEEGVLNPETTVVAIFPSPMMYAGPTEVQWHCRARMVAGANFYIVGRDPAGMPHPETGKDLYEPSHGAKVLTMAPGLITLEIVPFRVAAYNKKKKRMDYYDSEHHEDFEFISGTRMRKLAREGQKPPEGFMAPKAWTVLTEYYKSLEKA | 2 | < 1
3 | PAPS synthase 1 RR111,112AA (enzyme, human, UniProt O43252 1-624, looked up, Same construct as m1 with the double mutation made by site-directed mutagenesis; the oligonucleotides are in Information S1; also called PAPSS1 RR111,112AA; source: E. coli expression strains, purified (GSH sepharose, PreScission digestion, Superdex 200)) MEIPGSLCKKVKLSNNAQNWGMQRATNVTYQAHHVSRNKRGQVVGTRGGFRGCTVWLTGLSGAGKTTVSMALEEYLVCHGIPCYTLDGDNIRQGLNKNLGFSPEDREENVAAIAEVAKLFADAGLVCITSFISPYTQDRNNARQIHEGASLPFFEVFVDAPLHVCEQRDVKGLYKKARAGEIKGFTGIDSEYEKPEAPELVLKTDSCDVNDCVQQVVELLQERDIVPVDASYEVKELYVPENKLHLAKTDAETLPALKINKVDMQWVQVLAEGWATPLNGFMREREYLQCLHFDCLLDGGVINLSVPIVLTATHEDKERLDGCTAFALMYEGRRVAILRNPEFFEHRKEERCARQWGTTCKNHPYIKMVMEQGDWLIGGDLQVLDRVYWNDGLDQYRLTPTELKQKFKDMNADAVFAFQLRNPVHNGHALLMQDTHKQLLERGYRRPVLLLHPLGGWTKDDDVPLMWRMKQHAAVLEEGVLNPETTVVAIFPSPMMYAGPTEVQWHCRARMVAGANFYIVGRDPAGMPHPETGKDLYEPSHGAKVLTMAPGLITLEIVPFRVAAYNKKKKRMDYYDSEHHEDFEFISGTRMRKLAREGQKPPEGFMAPKAWTVLTEYYKSLEKA | 2 | < 1
